Measured values as given in patent publication US20070190045A1, “Anti-CD3 and antigen-specific immunotherapy to treat autoimmunity” (priority 2004, published 2007).
Like-named read-outs stand apart in the source and are kept apart here.

Columns and labels:
[1] = test system: PBMC; assay: Induction of regulatory T cells in vitro with OKT3 then IL-10/IL-2; inhibition of PHA-stimulated PBMC proliferation; type: cell-based, human
Source text: See text in Example 4 for details of the experimental procedure. […] In the left panel of FIG. 10A, responder cells alone were stimulated with PHA and the percentage of proliferating cells was 67%. In the right panel of FIG. 10A, responder cells were stimulated with PHA in the presence of cells treated with anti-CD3 mAb/IL-10/IL-2, and the percentage of proliferating cells was 43%. The number of proliferating responder cells (i.e. diluted CFSE (carboxy-fluorescein diacetate, succinimidyl ester)) in the presence of the added cells is shown. […] In the left panel of FIG. 10B, responder cells alone were stimulated with PHA and the percentage of proliferating cells was 50%. In the right panel of FIG. 10B, responder cells were stimulated with PHA in the presence of IL-10/IL-2 cultured cells, and the percentage of proliferating cells was 54%.
3. Treatment with anti-CD3 mAb induces regulatory T cells in vitro: In order to obtain sufficient numbers of cells for studies of functional properties, anti-CD3 mAb has been utilized to expand regulatory T cells in vitro. PBMC were cultured for 10 days with OKT3 mAb and then CD4+ cells were isolated by sorting. They were then cultured for 19 days with IL-10 and IL-2. These cells were then added to cultures of PBMC from the same individual, stimulated with PHA (phytohemagglutinin). […] The majority (94%) of the CD4+ cells that inhibit PBMC proliferation are CCR4+, 46% are CD62L+, and 93% are CD45RO+. About 5% of the cells are GITR+.

[2] = test system: patients with new onset Type 1 diabetes; assay: Side effects of hOKT3γ1(Ala-Ala) in the Phase I/II trial (WHO Criteria); type: in vivo, human
Source text: The dosing regimen was modified from a 14-day to a 12-day course after treatment of the first 12 patients.

[3] = test system: PBMC; assay: Inhibitory properties of cells grown in hOKT3γ1(Ala-Ala) and IL-10/IL-2 on PHA-stimulated PBMC; type: cell-based, human; details: 10 days with mAb, sorted, 2 weeks IL-10 and IL-2
Method: Other cells were cultured in IL-10/IL-2 (FIG. 11B), sorted, and then cultured for an addition 19 days in IL-10/IL-2. Both groups of cells were added to fresh PBMC. Uptake of 3H-thymidine was measured 72 hrs after the addition of PHA.
These cells were then cultured for an additional 2 weeks in IL-10 and IL-2 and then added to PBMC from the same donor and stimulated with PHA.

[4] = test system: CD4+IL-10+ T cells; assay: Induction of CD4+IL-10+ cells in vivo in treated patients (intracellular cytokine staining); set-up: species or system human
Source text: Cells were isolated from patients after treatment with the mAb and stained for intracytoplasmic IL-10 and IFN-γ without further activation ex vivo. IL-10+CD4+ cells were identified in 5/6 patients within 1 week after the last dose of mAb.
2. […] PBMC were harvested and frozen from a patient treated with hOKT3γ1(Ala-Ala) at the conclusion of mAb treatment. These cells, as well as those harvested before mAb treatment were thawed and stained for intracellular cytokines, IL-10 and IFN-γ. Markers were placed around surface molecules CD4 and CD3. Cells harvested from patients after anti-CD3 mAb treatment were producing IL-10 in vivo. […] These induced cells were IFN-γ negative, predominantly CD45RO+, and generally CCR4+. Thirteen percent of these cells produced TGF-β by surface staining.

[5] = test system: T cells; details: cited from earlier work
[6] = test system: patients with new onset Type 1 diabetes; assay: Phase I/II trial of hOKT3γ1(Ala-Ala) in new onset Type 1 diabetes: C-peptide response to MMTT; type: in vivo, human; details: patients with new onset T1D
[7] = test system: NOD mice; details: cited from earlier work
[8] = after OKT3 10 days, IL-10/IL-2 19 days
[9] = Phase I/II trial, 12 or 14-day regimen

## OKT3 mAb: murine anti-CD3 mAb; in FIG. 10 cells cultured with it, then with IL-10 and IL-2
[1]; PHA stimulation in presence of added cultured cells, responder cells alone 67% (FIG. 10A) or 50% (FIG. 10B)
  percentage of proliferating responder cells: 43%
[1]; [8]
  inhibitory CD4+ cells that are CCR4+: 94%
  inhibitory CD4+ cells that are CD45RO+: 93%
  inhibitory CD4+ cells that are CD62L+: 46%
  inhibitory CD4+ cells that are GITR+: About 5%
[1]; cells added at ratio 1:5
  effect of added cultured cells on proliferation of PHA-stimulated CD4+ T cells/PBMC: inhibited proliferation

## hOKT3γ1(Ala-Ala): humanized anti-CD3 mAb with the same CDR region as OKT3 and a mutation in the Fc portion to reduce FcR binding
[2]; [9]
  Arthralgia, Mild: 8%
  Arthralgia, Moderate: 0
  Arthralgia, Severe: 0
  Diarrhea, Mild: 0
  Diarrhea, Moderate: 0
  Diarrhea, Severe: 0
  Dyspnea, Mild: 8%
  Dyspnea, Moderate: 0
  Dyspnea, Severe: 0
  Fever, Mild: 17%
  Fever, Moderate: 58%
  Fever, Severe: 0
  Headache, Mild: 33%
  Headache, Moderate: 0
  Headache, Severe: 0
  Hypotension, Mild: 0
  Hypotension, Moderate: 0
  Hypotension, Severe: 0
  Myalgia, Mild: 17%
  Myalgia, Moderate: 0
  Myalgia, Severe: 0
  Nausea, Mild: 8%
  Nausea, Moderate: 0
  Nausea, Severe: 0
  Rash, Mild: 58%
  Rash, Moderate: 25%
  Rash, Severe: 0
  Vomiting, Mild: 8%
  Vomiting, Moderate: 0
  Vomiting, Severe: 0
[2]; data from patients with T1DM
  tolerability: well tolerated
[3]
  effect of CCR4+ cells from cultures on proliferation of PHA-stimulated PBMC: inhibited proliferation
[4]; PBMC at conclusion of mAb treatment
  induced CD4+IL-10+ cells producing TGF-β by surface staining: Thirteen
[4]; within 1 week after the last dose of mAb
  patients in whom IL-10+CD4+ cells were identified: 5/6
[5]; compared with OKT3, Herold et al. 2003
  cytokine production after activation signal to T cells: relatively greater production of IL-10 instead of IFN-γ
[5]; in vitro or in vivo, Xu et al. 2000
  T cell activation compared with OKT3: does not cause the same T cell activation
[6]
  duration of functional immunologic tolerance after treatment: at least 1 year

## insulin B9-23 peptide: peptide comprising amino acids 9-23 of the insulin B chain (SHLVEALYLVCGERG)
[7]; mouse, in vivo
  anaphylaxis: anaphylaxis
[7]; reports in NOD mice (Liu et al. 2002; Pedotti et al. 2003), listed as insulin peptide
  anaphylaxis: fatal anaphylactic reactions

## rhGAD65: human GAD 65 protein, obtained from Diamyd
[7]; reports in NOD mice (Liu et al. 2002; Pedotti et al. 2003)
  anaphylaxis: fatal anaphylactic reactions
